Assay results taken from patent US20250296960A1, “PEPTIDE COMPOSITIONS AND METHODS OF USE THEREOF” (priority 2022, published 2025).
Like-named read-outs stand apart in the source and are kept apart here. Numbered stars: 1 amine (or outer) side, 2 acyl side, 3 side chain; on linkers, the order of the positions; unused ones are H or OH. Square brackets hold non-standard residues; d marks the D form. Primed or numbered codes have the meaning given here. Side chains are listed from the residue outwards. Ends that are not written are not given here. * marks the point of attachment. C18 = C18 fatty acid (C16-C22 fatty acids conjugated via γGlu/8-amino-3,6-dioxaoctanoic acid spacers); methoxinine = methoxinine (m*), COCC[C@H](N[*:1])C(=O)[*:2]; C18″ = C18 fatty acid moiety (of 2OEG-γGlu-C18, K*); Biotin = O=C1N[C@H]2[C@H](CS[C@H]2CCCCC(=O)*)N1; γGlu = O=C(O)[C@H](CCC(=O)[*:2])N[*:1]; AEEA = NCCOCCOCC(=O)O; Aib = CC(C)(N)C(=O)O

T1: human glucose-dependent insulinotropic polypeptide receptor (GIPR), expressed on CHO-K1 cells (human, UniProt P48546 22-466)
T1 sequence (looked up): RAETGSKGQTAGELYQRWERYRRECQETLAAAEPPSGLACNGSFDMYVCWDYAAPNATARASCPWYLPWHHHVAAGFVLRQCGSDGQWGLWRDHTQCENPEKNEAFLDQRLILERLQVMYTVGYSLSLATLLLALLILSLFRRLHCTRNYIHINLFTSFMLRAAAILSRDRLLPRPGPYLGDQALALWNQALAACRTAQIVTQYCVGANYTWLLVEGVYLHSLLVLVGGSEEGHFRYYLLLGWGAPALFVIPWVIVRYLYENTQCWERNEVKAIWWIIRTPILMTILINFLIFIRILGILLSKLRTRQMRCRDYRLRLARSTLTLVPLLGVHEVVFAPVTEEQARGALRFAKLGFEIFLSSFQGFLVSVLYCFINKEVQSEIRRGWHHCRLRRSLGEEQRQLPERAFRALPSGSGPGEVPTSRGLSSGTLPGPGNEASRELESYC


Tests used:
Experiment in all cases: cell-based or functional assay
[1] = target: T2, human GLP-1 receptor (GLP-1R), expressed on CHO-K1 cells (human, UniProt P43220 24-463)
[2] = target: T3, human glucagon receptor (GCGR), expressed on CHO-K1 cells (human, UniProt P47871 26-477)
[3] = target: T1, human glucose-dependent insulinotropic …
[4] = target: T2, human GLP-1 receptor (GLP-1R), …; remark: listed apart in the source
[5] = target: T3, human glucagon receptor (GCGR), …; remark: listed apart in the source
[6] = target: T1, human glucose-dependent insulinotropic …; remark: listed apart in the source
[7] = target: T2, human GLP-1 receptor (GLP-1R), …; remark: listed apart in the source
[8] = target: T3, human glucagon receptor (GCGR), …; remark: listed apart in the source
[9] = target: T1, human glucose-dependent insulinotropic …; remark: listed apart in the source
[10] = target: T2, human GLP-1 receptor (GLP-1R), …; remark: listed apart in the source
[11] = target: T3, human glucagon receptor (GCGR), …; remark: listed apart in the source
[12] = target: T1, human glucose-dependent insulinotropic …; remark: listed apart in the source

T3 sequence (P47871 26-477): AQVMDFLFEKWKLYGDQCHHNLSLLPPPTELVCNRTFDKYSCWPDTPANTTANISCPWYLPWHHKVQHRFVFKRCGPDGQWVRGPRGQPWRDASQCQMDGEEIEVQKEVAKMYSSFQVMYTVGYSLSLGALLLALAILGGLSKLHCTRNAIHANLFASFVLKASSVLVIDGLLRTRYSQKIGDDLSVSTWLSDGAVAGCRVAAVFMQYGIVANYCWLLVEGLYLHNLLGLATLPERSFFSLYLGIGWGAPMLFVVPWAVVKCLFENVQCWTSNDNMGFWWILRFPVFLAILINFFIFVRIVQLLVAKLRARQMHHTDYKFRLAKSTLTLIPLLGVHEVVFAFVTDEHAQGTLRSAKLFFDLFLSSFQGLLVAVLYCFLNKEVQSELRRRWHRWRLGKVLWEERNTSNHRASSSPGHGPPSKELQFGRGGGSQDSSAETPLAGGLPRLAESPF

| Binder | Ratio vs. GLP-1R [1] | Relative % to native ligand [1] | Ratio vs. GLP-1R [2] | Relative % to native ligand [2] | Ratio vs. GLP-1R [3] | Relative % to native ligand [3] | Relative % to native ligand [4] | Relative % to native ligand [5] | Relative % to native ligand [6] | Ratio vs. GLP-1R [7] | Ratio vs. GLP-1R [8] | Ratio vs. GLP-1R [9] | Relative % to non-lipidated peptide [10] | Relative % to non-lipidated peptide [11] | Relative % to non-lipidated peptide [12] |
| --- | --- | --- | --- | --- | --- | --- | --- | --- | --- | --- | --- | --- | --- | --- | --- |
| Y[Aib]QGTFTSDYSK([AEEA-AEEA-γGlu-C18])LLDYMMQRDFVKWLLEGGPSSGAPPPS-NH2 (not fully specified (residue 24); printed as YAibQGT FTSDY SK*LLD YMMQR DFVB*W LLEGG PSSGA PPPS) [SEQ ID NO. 89] | 100 | 38% | 117 | 45% | 399 | 154% | – | – | – | – | – | – | – | – | – |
| H[Aib]QGTFTSDYSK([AEEA-AEEA-γGlu-C18″])YLDYMMARDFVQWLIEGGPSSGAPPPS-NH2 [Peptide No. 5D] | – | – | – | – | – | – | 35% | 72% | 3% | 100 | 204 | 8 | 6% | 10% | 93% |
| Y[Aib]QGTFTSDYSKYLDYMMARDFVQWLIEGGPSSGAPPPSC-NH2 [Peptide No. 5-1] | – | – | – | – | – | – | 117% | 6650% | 13% | 100 | 5660 | 11 | 100% | 100% | 100% |
| Y[Aib]QGTFTSDYSK([AEEA-AEEA-γGlu-C18])YLDYMMQRDFVK(Biotin)WLLEGGPSSGAPPPS (ends and bridges not checked) [SEQ ID NO. 97] | 100 | 106% | 28 | 30% | 117 | 123% | – | – | – | – | – | – | – | – | – |
| Y[Aib]QGTFTSDYSK([AEEA-AEEA-γGlu-C18])LLDYMMQKDFVQWLLEGGPSSGAPPPS-NH2 (not fully specified (residue 20); printed as YAibQGT FTSDY SK*LLD YMMQB* DFVQW LLEGG PSSGA PPPS) [SEQ ID NO. 88] | 100 | 16% | 120 | 20% | 432 | 71% | – | – | – | – | – | – | – | – | – |
| Y[Aib]QGTFTSDYSK([AEEA-AEEA-γGlu-C18″])YLDYMMQRDFVQWLIEGGPSSGAPPPS-NH2 [Peptide No. 5-2D] | – | – | – | – | – | – | 174% | 3% | 93% | 100 | 1 | 54 | 35% | 3% | 13% |
| Y[Aib]QGTFTSDK([AEEA-AEEA-γGlu-C18″])SKYLDYMMARDFVQWLIEGGPSSGAPPPS-NH2 [Peptide No. 5-1E] | – | – | – | – | – | – | 57% | 74% | 1% | 100 | 130 | 1 | 48% | 1% | 5% |
| Y[Aib]QGTFTSDYSK([AEEA-AEEA-γGlu-C18″])YLDYMMARDFVQWLIEGGPSSGAPPPS-NH2 [Peptide No. 5-1D] | – | – | – | – | – | – | 151% | 55% | 41% | 100 | 36 | 27 | 129% | 1% | 323% |
| Y[Aib]QGTFTSDYSK([AEEA-AEEA-γGlu-C18])LLDY[methoxinine][methoxinine]QRDFVQWLLEGGPSSGAPPPS-NH2 [SEQ ID NO. 96] | 100 | 181% | 10 | 17% | 56 | 102% | – | – | – | – | – | – | – | – | – |
| Y[Aib]QGTFTSDYSK([AEEA-AEEA-γGlu-C18])LLDKMMQRDFVQWLLEGGPSSGAPPPS-NH2 (not fully specified (residue 16); printed as YAibQGT FTSDY SK*LLD B*MMQR DFVQW LLEGG PSSGA PPPS) [SEQ ID NO. 86] | 100 | 90% | 157 | 142% | 639 | 575% | – | – | – | – | – | – | – | – | – |
| Y[Aib]QGTFTSDYSK([AEEA-AEEA-γGlu-C18])LLDYMMQ[Aib]DFVQYLLEGGPSSGAPPPSK-NH2 (not fully specified (residue 40)) [SEQ ID NO. 92] | 100 | 8% | 243 | 19% | 1530 | 120% | – | – | – | – | – | – | – | – | – |
| Y[Aib]QGTFTSDYSK([AEEA-AEEA-γGlu-C18])LLDQQAQRDFVQWLLEGGPSSGAPPPS-NH2 [SEQ ID NO. 95] | 100 | 1630% | 1 | 14% | 19 | 316% | – | – | – | – | – | – | – | – | – |
| Y[Aib]QGTFTSDYSKYLDYMMQRDFVQWLIEGGPSSGAPPPSC-NH2 [Peptide No. 5-2] | – | – | – | – | – | – | 495% | 91% | 738% | 100 | 18 | 149 | 100% | 100% | 100% |
| Y[Aib]QGTFTSDYSK([AEEA-AEEA-γGlu-C18])LLDYMMQRDFVQWLLEGGPSSGAPPPSK(Biotin)-NH2 [SEQ ID NO. 90] | 100 | 50% | 39 | 19% | 311 | 154% | – | – | – | – | – | – | – | – | – |
| Y[Aib]QGTFTSDYSKYLDYK([AEEA-AEEA-γGlu-C18″])MARDFVQWLIEGGPSSGAPPPS-NH2 [Peptide No. 5-1F] | – | – | – | – | – | – | 61% | 5030% | 2% | 100 | 8250 | 3 | 52% | 76% | 14% |
